PMC3261159

Biological target: 14-3-3ζ (UniProt P63104)
Assay: anti-HA co-IP, Myc Western blot
Conditions: reference: wild-type Myc-Stat3 (688–770); sites S727

Substance: Stat3 C-terminal region, 688-770 (from UniProt P40763) S727A
- binding against the reference: lost
